Measured values published in patent US20190367620A1 (Merck KGaA, published 2019).

Experiments:
Assay in all cases: SPR; free energy change relative to wild-type D2
[1] = target: T1, FGFR1 D2 point mutant G93A (human, UniProt P11362 22-254)
T1 chain: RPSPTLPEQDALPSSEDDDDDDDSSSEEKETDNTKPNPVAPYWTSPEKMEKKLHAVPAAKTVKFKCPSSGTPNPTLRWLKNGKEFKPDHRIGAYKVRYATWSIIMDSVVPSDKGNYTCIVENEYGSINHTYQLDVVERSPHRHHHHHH
Experimental: (§1) Binding affinities of anti-FGFR1 antibodies to FGFR1 were measured by Surface Plasmon Resonance (SPR) using a GE Healthcare BIAcore 4000 instrument as follows. Goat anti-human Fc antibody (Jackson ImmunoResearch Laboratories #109-005-098) was first immobilized on BIAcore carboxymethylated dextran CM5 chip using direct coupling to free amino groups following the procedure described by the manufacturer. Antibodies were then captured on the CM5 biosensor chip to achieve approximately 200 response units (RU). Binding measurements were performed using the running HBS-EP+ buffer. A 2-fold dilution series of His-tagged FGFR1 proteins were injected at a flow rate of 30 μl/min at 25° C. Association rates (kₒₙ, per mol/s) and dissociation rates (koff, per s) were calculated using a simple 1:1 Langmuir binding model (Biacore 4000 Evaluation Software). The equilibrium dissociation constant (KD, mol) was calculated as the ratio of koff/kₒₙ.
(§2) To obtain a finer, residue-level mapping of the epitope and to complement the HD exchange data, molecular modelling and manual inspection of the crystal structure of FGFR1 [(Beenken et al. 2012); PDB record 3OJV] was used to select solvent exposed residues within and around the epitope identified by HD exchange. The selected residues were mutated either to alanine (large to small) or to glycine if the selected residue was alanine. In total 35 point mutants were designed, expressed and purified in HEK cells, and tested for binding to mAb #A08 using surface plasmon resonance as described in Example 1.8. The affinity of the antibody for wild-type and each mutant was determined and used to calculate the contribution of each epitope residue to the binding energy.
(§3) Variant were compared to wild-type D2. The change in the Gibbs free energy of binding of mutant relative to the wild-type D2 construct (ΔΔGₘᵤₜ) was derived from the ratio of the wild-type and mutant KD.

[2] = target: T2, FGFR1 D2 point mutant D106A (human, UniProt P11362 22-254)
T2 chain: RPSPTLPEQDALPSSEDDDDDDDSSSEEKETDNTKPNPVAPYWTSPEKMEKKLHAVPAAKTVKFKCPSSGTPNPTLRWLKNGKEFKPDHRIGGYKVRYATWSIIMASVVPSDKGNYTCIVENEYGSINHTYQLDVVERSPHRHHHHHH
Experimental: as §1, §2, §3

[3] = target: T3, FGFR1 D2 point mutant S107A (human, UniProt P11362 22-254)
T3 chain: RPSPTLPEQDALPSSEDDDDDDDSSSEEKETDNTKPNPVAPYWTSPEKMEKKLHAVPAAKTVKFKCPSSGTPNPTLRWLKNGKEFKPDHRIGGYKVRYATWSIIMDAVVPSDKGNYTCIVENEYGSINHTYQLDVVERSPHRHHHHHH
Experimental: as §1, §2, §3

[4] = target: T4, FGFR1 D2 point mutant Y94A (human, UniProt P11362 22-254)
T4 construct: Uncharacteristic melting curve
T4 chain: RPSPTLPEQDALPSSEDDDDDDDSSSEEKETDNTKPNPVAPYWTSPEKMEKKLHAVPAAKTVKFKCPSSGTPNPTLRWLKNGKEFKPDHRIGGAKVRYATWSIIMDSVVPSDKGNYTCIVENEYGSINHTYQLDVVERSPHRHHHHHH
Experimental: as §1, §2, §3

[5] = target: T5, FGFR1 D2 point mutant K65A (human, UniProt P11362 22-254)
T5 chain: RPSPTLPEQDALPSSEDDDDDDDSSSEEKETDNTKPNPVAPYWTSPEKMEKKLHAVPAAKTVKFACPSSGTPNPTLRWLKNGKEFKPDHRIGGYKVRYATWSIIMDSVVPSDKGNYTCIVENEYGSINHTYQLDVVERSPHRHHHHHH
Experimental: as §1, §2, §3

[6] = target: T6, FGFR1 D2 point mutant V96A (human, UniProt P11362 22-254)
T6 chain: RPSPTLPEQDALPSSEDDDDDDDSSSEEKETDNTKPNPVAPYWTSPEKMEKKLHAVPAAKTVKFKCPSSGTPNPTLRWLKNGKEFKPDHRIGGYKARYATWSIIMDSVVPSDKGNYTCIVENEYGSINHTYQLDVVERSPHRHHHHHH
Experimental: as §1, §2, §3

[7] = target: T7, FGFR1 D2 point mutant K48A (human, UniProt P11362 22-254)
T7 chain: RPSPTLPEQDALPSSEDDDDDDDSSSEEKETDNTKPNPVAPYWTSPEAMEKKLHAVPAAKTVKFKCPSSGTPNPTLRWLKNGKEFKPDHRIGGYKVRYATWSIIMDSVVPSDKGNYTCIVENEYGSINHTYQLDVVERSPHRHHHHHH
Experimental: as §1, §2, §3

[8] = target: T8, FGFR1 D2 point mutant G92A (human, UniProt P11362 22-254)
T8 chain: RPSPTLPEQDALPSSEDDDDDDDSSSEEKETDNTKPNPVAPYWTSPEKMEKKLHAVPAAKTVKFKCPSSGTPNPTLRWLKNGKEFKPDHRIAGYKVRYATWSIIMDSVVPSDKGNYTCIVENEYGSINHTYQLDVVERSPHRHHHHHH
Experimental: as §1, §2, §3

[9] = target: T9, FGFR1 D2 point mutant Y98A (human, UniProt P11362 22-254)
T9 chain: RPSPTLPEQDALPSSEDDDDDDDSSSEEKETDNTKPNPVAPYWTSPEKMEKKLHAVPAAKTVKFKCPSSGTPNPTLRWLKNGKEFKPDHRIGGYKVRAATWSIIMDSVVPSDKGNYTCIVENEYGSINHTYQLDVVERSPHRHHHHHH
Experimental: as §1, §2, §3

[10] = target: T10, FGFR1 D2 point mutant H54A (human, UniProt P11362 22-254)
T10 chain: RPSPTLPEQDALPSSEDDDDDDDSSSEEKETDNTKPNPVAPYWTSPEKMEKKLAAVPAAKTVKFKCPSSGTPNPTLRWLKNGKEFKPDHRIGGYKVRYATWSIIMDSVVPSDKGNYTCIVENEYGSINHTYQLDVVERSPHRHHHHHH
Experimental: as §1, §2, §3

B1: mAb #A08 (antibody, V domains shown)
VH: EVQLQESGPGLVKPSGTLSLTCAVSGGSISSNNWWSWVRQPPGKGLEWIGEIYHSGSTSYNPSLKSRVTISVDKSKNQFSLKLNSVTAADTAVYYCARGTDWFDPWGQGTLVTVSS
VL: QAVLTQPPSVSVAPGQTARITCGGNNIGSESVHWYQQKPGQAPVLVVYDDSDRPSGIPERFSGSNSGNTATLTISRVEAGDEADYYCQVWDSTSDHRVFGGGTKLTVL
notes: Only variable domains are tied to the name mAb #A08 (hit); also called #A08 hit; mAb #08
Binder B1 has a ΔΔGmut [1] of 0.29 kcal/mol, a ΔΔGmut [2] of 1.92 kcal/mol and a ΔΔGmut [3] of 0.13 kcal/mol. For the same binder, the ΔΔGmut [4] was 0.96 kcal/mol, the ΔΔGmut [5] was -0.04 kcal/mol and the ΔΔGmut [6] was -0.02 kcal/mol. For the same binder, the ΔΔGmut [7] was -0.46 kcal/mol, the ΔΔGmut [8] was 0.21 kcal/mol and the ΔΔGmut [9] was -0.04 kcal/mol. For the same binder, the ΔΔGmut [10] was 0.37 kcal/mol.
